# According to the Immune Epitope Database (IEDB):
# Columns and labels:
# HLA-A*26:01 [1] = test: IEDB peptide-MHC binding, purified MHC/competitive/fluorescence; filed as Kd, often an IC50 or EC50 that approximates it; ≥ and ≤ were set here for values at or beyond the usual limits of such assays
# HLA-A*01:01 = test: as above
# HLA-B*15:01 [2] = test: as above
# HLA-A*02:06 = test: IEDB peptide-MHC binding, purified MHC/competitive/radioactivity; filed as Kd, often an IC50 or EC50 that approximates it; ≥ and ≤ were set here for values at or beyond the usual limits of such assays
# HLA-A*02:17 = test: as above
# HLA-A*02:03 [3] = test: as above
# HLA-A*68:02 [4] = test: as above
# HLA-A*02:01 [5] = test: as above
# HLA-A*32:01 = test: as above; settings: source organism: Dengue virus 2 Peru/IQT2913/1996
# HLA-B*58:01 [6] = test: IEDB peptide-MHC binding, purified MHC/competitive/fluorescence; filed as Kd, often an IC50 or EC50 that approximates it; ≥ and ≤ were set here for values at or beyond the usual limits of such assays
# HLA-B*57:01 [7] = test: IEDB peptide-MHC binding, purified MHC/direct/fluorescence; filed as Kd, often an IC50 or EC50 that approximates it; ≥ and ≤ were set here for values at or beyond the usual limits of such assays
# HLA-B*46:01 [8] = test: IEDB peptide-MHC binding, purified MHC/competitive/fluorescence; filed as Kd, often an IC50 or EC50 that approximates it; ≥ and ≤ were set here for values at or beyond the usual limits of such assays
# HLA-B*35:01 = test: IEDB peptide-MHC binding, purified MHC/competitive/radioactivity; filed as Kd, often an IC50 or EC50 that approximates it; ≥ and ≤ were set here for values at or beyond the usual limits of such assays; settings: source organism: Dengue virus 3 Martinique/1243/1999
# HLA-A*24:03 = test: IEDB peptide-MHC binding, purified MHC/direct/fluorescence; filed as Kd, often an IC50 or EC50 that approximates it; ≥ and ≤ were set here for values at or beyond the usual limits of such assays; settings: source organism: Orthohantavirus negraense
# HLA-A*02:03 [9] = test: as above; settings: source organism: Orthohantavirus negraense
# HLA-A*02:12 = test: as above; settings: source organism: Orthohantavirus negraense
# HLA-A*02:16 = test: as above; settings: source organism: Orthohantavirus negraense
# HLA-A*02:19 = test: as above; settings: source organism: Orthohantavirus negraense
# HLA-A*29:02 = test: as above; settings: source organism: Orthohantavirus negraense
# HLA-B*18:01 [10] = test: IEDB peptide-MHC binding, purified MHC/competitive/fluorescence; filed as Kd, often an IC50 or EC50 that approximates it; ≥ and ≤ were set here for values at or beyond the usual limits of such assays; settings: source organism: Orthohantavirus negraense
# HLA-B*51:01 = test: as above; settings: source organism: Orthohantavirus negraense
# HLA-B*39:01 = test: as above; settings: source organism: Orthohantavirus negraense
# HLA-A*03:01 [11] = test: as above
# HLA-B*57:01 [12] = test: as above; settings: source organism: Orthohantavirus negraense
# HLA-B*27:03 = test: as above; settings: source organism: Orthohantavirus negraense
# HLA-B*15:17 [13] = test: as above; settings: source organism: Orthohantavirus negraense
# HLA-A*69:01 = test: as above; settings: source organism: Orthohantavirus negraense
# HLA-A*02:01 [14] = test: as above; settings: source organism: Orthohantavirus negraense
# HLA-B*18:01 [15] = test: IEDB peptide-MHC binding, purified MHC/direct/fluorescence; filed as Kd, often an IC50 or EC50 that approximates it; ≥ and ≤ were set here for values at or beyond the usual limits of such assays; settings: source organism: Shigella sonnei Ss046
# HLA-B*07:02 = test: as above; settings: source organism: Shigella sonnei Ss046
# HLA-B*48:01 = test: as above; settings: source organism: Shigella sonnei Ss046
# HLA-B*58:01 [16] = test: as above; settings: source organism: Shigella sonnei Ss046
# HLA-A*31:01 = test: as above; settings: source organism: Shigella sonnei Ss046
# HLA-A*03:01 [17] = test: as above; settings: source organism: Shigella sonnei Ss046
# HLA-B*40:01 = test: as above; settings: source organism: Shigella sonnei Ss046
# HLA-B*15:01 [18] = test: as above; settings: source organism: Shigella sonnei Ss046
# HLA-B*15:17 [19] = test: as above; settings: source organism: Shigella sonnei Ss046
# HLA-B*46:01 [20] = test: as above; settings: source organism: Shigella sonnei Ss046
# HLA-A*68:02 [21] = test: as above; settings: source organism: Shigella sonnei Ss046
# HLA-B*27:05 = test: as above; settings: source organism: Shigella sonnei Ss046
# HLA-A*11:01 = test: as above; settings: source organism: Shigella sonnei Ss046
# HLA-A*02:01 [22] = test: as above; settings: source organism: Shigella sonnei Ss046
# HLA-A*26:01 [23] = test: IEDB peptide-MHC binding, purified MHC/competitive/radioactivity; filed as Kd, often an IC50 or EC50 that approximates it; ≥ and ≤ were set here for values at or beyond the usual limits of such assays; settings: source organism: Dengue virus 2 Jamaica/1409/1983
# [24] = source organism: Escherichia coli 536
# [25] = source organism: Dengue virus 3 Martinique/1243/1999
# [26] = source organism: Dengue virus 3 China/80-2/1980
# [27] = source organism: Dengue virus 2 Thailand/NGS-C/1944
# [28] = source organism: Dengue virus 2 Peru/IQT2913/1996
# [29] = source organism: Francisella tularensis subsp. tularensis FSC198
# [30] = source organism: Dengue virus 4 Dominica/814669/1981
# [31] = source organism: Dengue virus 2 Jamaica/1409/1983
# [32] = source organism: Orthohantavirus negraense
# [33] = source organism: Dengue virus 4 Philippines/H241/1956
# [34] = source organism: Salmonella enterica subsp. enterica serovar Typhi
sequence,measurement,setting,value
AVASLLDEY,Kd,HLA-A*26:01 [1]; [24],871 nM
same,Kd,HLA-A*01:01; [24],720 nM
same,Kd,HLA-B*15:01 [2]; [24],96.2 nM
FTMGVLCLA,Kd,HLA-A*02:06; [25],3.17 nM
same,Kd,HLA-A*02:17; [26],6740 nM
same,Kd,HLA-A*02:03 [3]; [25],28.7 nM
same,Kd,HLA-A*68:02 [4]; [25],12.5 nM
same,Kd,HLA-A*02:01 [5]; [26],12.3 nM
GLFPVSIPI,Kd,HLA-A*02:17; [27],69.9 nM
same,Kd,HLA-A*02:03 [3]; [28],4.32 nM
same,Kd,HLA-A*32:01,6.47 nM
same,Kd,HLA-A*02:01 [5]; [27],2.13 nM
GVLIGGLEW,Kd,HLA-B*58:01 [6]; source organism: Influenza A virus (A/parakeet/Narita/92A/98(H9N2)),552 nM
ISTHIGFSF,Kd,HLA-B*57:01 [7]; source organism: Francisella tularensis subsp. holarctica LVS,125 nM
same,Kd,HLA-B*58:01 [6]; [29],1.5 nM
same,Kd,HLA-B*46:01 [8]; [29],≥ 20000 nM
KMSPGYVLGV,Kd,HLA-A*02:06; [30],70.4 nM
same,Kd,HLA-A*02:17; [30],324 nM
same,Kd,HLA-A*02:03 [3]; [30],0.57 nM
same,Kd,HLA-A*02:01 [5]; [30],4.44 nM
KSLIISFAF,Kd,HLA-B*58:01 [6]; source organism: Bacillus anthracis str. A0488,391 nM
LLVISGLFPV,Kd,HLA-A*02:06; [28],1.13 nM
same,Kd,HLA-A*02:17; [27],45.5 nM
same,Kd,HLA-A*02:03 [3]; [28],4.84 nM
MLWMAEIPL,Kd,HLA-A*02:17; [25],9.18 nM
same,Kd,HLA-B*35:01,408 nM
same,Kd,HLA-A*02:01 [5]; [25],4.11 nM
SLLFKTEDGV,Kd,HLA-A*02:17; [31],719 nM
same,Kd,HLA-A*02:01 [5]; [31],67.4 nM
SLLFREVWK,Kd,HLA-A*24:03,≥ 20000 nM
same,Kd,HLA-A*02:03 [9],≥ 20000 nM
same,Kd,HLA-A*02:12,≥ 20000 nM
same,Kd,HLA-A*02:16,≥ 20000 nM
same,Kd,HLA-A*02:19,≥ 20000 nM
same,Kd,HLA-A*29:02,≥ 20000 nM
same,Kd,HLA-B*18:01 [10],≥ 20000 nM
same,Kd,HLA-B*51:01,≥ 20000 nM
same,Kd,HLA-A*26:01 [1]; [32],≥ 20000 nM
same,Kd,HLA-B*39:01,≥ 20000 nM
same,Kd,HLA-A*03:01 [11]; [32],37.4 nM
same,Kd,HLA-B*57:01 [12],≥ 20000 nM
same,Kd,HLA-B*27:03,≥ 20000 nM
same,Kd,HLA-B*15:01 [2]; [32],≥ 20000 nM
same,Kd,HLA-B*15:17 [13],≥ 20000 nM
same,Kd,HLA-B*46:01 [8]; [32],≥ 20000 nM
same,Kd,HLA-A*69:01,≥ 20000 nM
same,Kd,HLA-A*02:01 [14],≥ 20000 nM
SLSVSLVLV,Kd,HLA-A*02:17; [31],4450 nM
same,Kd,HLA-A*02:03 [3]; [31],1.86 nM
same,Kd,HLA-A*02:01 [5]; [31],58.5 nM
TLLCLIPTA,Kd,HLA-A*02:17; [33],9560 nM
same,Kd,HLA-A*02:01 [5]; [33],5.77 nM
TLMLVALLGA,Kd,HLA-A*02:06; [33],378 nM
same,Kd,HLA-A*02:17; [33],11000 nM
same,Kd,HLA-A*02:03 [3]; [33],14.4 nM
same,Kd,HLA-A*02:01 [5]; [33],5.42 nM
VLDMGDPVK,Kd,HLA-B*18:01 [15],≥ 20000 nM
same,Kd,HLA-B*07:02,≥ 20000 nM
same,Kd,HLA-B*48:01,≥ 20000 nM
same,Kd,HLA-B*58:01 [16],≥ 20000 nM
same,Kd,HLA-A*31:01,≥ 20000 nM
same,Kd,HLA-A*03:01 [17],2090 nM
same,Kd,HLA-B*57:01 [7]; source organism: Shigella sonnei Ss046,≥ 20000 nM
same,Kd,HLA-B*40:01,≥ 20000 nM
same,Kd,HLA-B*15:01 [18],≥ 20000 nM
same,Kd,HLA-B*15:17 [19],≥ 20000 nM
same,Kd,HLA-B*46:01 [20],≥ 20000 nM
same,Kd,HLA-A*68:02 [21],≥ 20000 nM
same,Kd,HLA-B*27:05,≥ 20000 nM
same,Kd,HLA-A*11:01,7000 nM
same,Kd,HLA-A*02:01 [22],≥ 20000 nM
same,Kd,HLA-A*01:01; source organism: Paraglaciecola sp. T6c,2590 nM
VLLLVTHYAI,Kd,HLA-A*02:17; [26],561 nM
same,Kd,HLA-A*02:01 [5]; [26],219 nM
WTMKILIGV,Kd,HLA-A*02:06; [31],17.7 nM
same,Kd,HLA-A*26:01 [23],5360 nM
same,Kd,HLA-A*02:17; [31],6060 nM
same,Kd,HLA-A*68:02 [4]; [31],8.95 nM
same,Kd,HLA-A*02:01 [5]; [31],22.5 nM
WVAGVQLLY,Kd,HLA-A*01:01; [34],39 nM
same,Kd,HLA-A*03:01 [11]; [34],486 nM
